This series concerns the molecule itself. In words: SEC. (In general: Size exclusion chromatography separates by hydrodynamic size, large species first.)

B1: Escherichia coli O-acetylserine sulfhydrylase isoenzyme B (CysM) (enzyme, UniProt P16703 1-303, looked up)
chain: MSTLEQTIGNTPLVKLQRMGPDNGSEVWLKLEGNNPAGSVKDRAALSMIVEAEKRGEIKPGDVLIEATSGNTGIALAMIAALKGYRMKLLMPDNMSQERRAAMRAYGAELILVTKEQGMEGARDLALEMANRGEGKLLDQFNNPDNPYAHYTTTGPEIWQQTGGRITHFVSSMGTTGTITGVSRFMREQSKPVTIVGLQPEEGSSIPGIRRWPTEYLPGIFNASLVDEVLDIHQRDAENTMRELAVREGIFCGVSSGGAVAGALRVAKANPDAVVVAIICDRGDRYLSTGVFGEEHFSQGAGI
modifications: PLP cofactor ligated through a Schiff base to the ε-amino group of Lysine-41 (PLP:CysM ratio approximately 0.57:1)
As for B1, the “stoichiometry N” value amounted to 2.

A word on the stoichiometry N: it is the number of molecules, sites or subunits per partner or assembly.

These data come from paper PMC6526949 (Biochemistry, 2018).
